B1: CD4001080 (bispecific antibody)
Fc-knob x CD40_5B9: EPKSSDKTHTCPPCPAPPAAAPSVFLFPPKPKDTLMISRTPEVTCVVVDVSHEDPEVKFNWYVDGVEVHNAKTKPREEQYNSTYRVVSVLTVLHQDWLNGKEYKCAVSNKALPAPIEKTISKAKGQPREPQVYTLPPSRDELTKNQVSLWCLVKGFYPSDIAVEWESNGQPENNYKTTPPVLDSDGSFFLYSKLTVDKSRWQQGNVFSCSVMHEALHNHYTQKSLSLSPGGGGSPSDVVMTQTPLSLPVSLGDQASISCRSSQSLVHYNGYTYLHWYLQKPGQSPKLLIYKVSNRFSGVPDRFSGSGSGTDFTLKISRVEAEDLGVYFCSQTTHVPLTFGAGTKLELRGGGGSGGGGSGGGGSGGGGSEVMLVESGGGLVKPGGSLKLSCAASGFTFSSYAMSWVRQTPERRLEWVASISSAGTYIYYPDSVKGRFTISRDNAKNILYLQMNSLRSEDTAMYYCARHGNGYDPLWYFDVWGAGTTVTVSS
PDL_5F9 x Fc-Hole x CD40_5B9: EVQLVESGGGLVKPGGSLRLSCAASGFTFSDYGMAWVRQAPGKGLEWVAFITSLAYIIYYADSVKGRFTISRDNAKNSLYLQMNSLRAEDTAVYYCARNYGSSPYYFDYWGQGTLVTVSSGGGGSGGGGSGGGGSGGGGSDIQMTQSPSSLSASVGDRVTITCRASQDINKFLSWYQQKPGKAPKLLIHYTSSLQPGVPSRFSGSGSGTDFTLTISSLQPEDFATYYCLQYDNLYTFGQGTKLEIKEPKSSDKTHTCPPCPAPPAAAPSVFLFPPKPKDTLMISRTPEVTCVVVDVSHEDPEVKFNWYVDGVEVHNAKTKPREEQYNSTYRVVSVLTVLHQDWLNGKEYKCAVSNKALPAPIEKTISKAKGQPREPQVYTLPPSRDELTKNQVSLSCAVKGFYPSDIAVEWESNGQPENNYKTTPPVLDSDGSFFLVSKLTVDKSRWQQGNVFSCSVMHEALHNRFTQKSLSLSPGGGGSPSDVVMTQTPLSLPVSLGDQASISCRSSQSLVHYNGYTYLHWYLQKPGQSPKLLIYKVSNRFSGVPDRFSGSGSGTDFTLKISRVEAEDLGVYFCSQTTHVPLTFGAGTKLELRGGGGSGGGGSGGGGSGGGGSEVMLVESGGGLVKPGGSLKLSCAASGFTFSSYAMSWVRQTPERRLEWVASISSAGTYIYYPDSVKGRFTISRDNAKNILYLQMNSLRSEDTAMYYCARHGNGYDPLWYFDVWGAGTTVTVSS
B2: PDL01152 (Fc fusion)
chain: DIQMTQSPSSLSASVGDRVTITCRASQDINKFLSWYQQKPGKAPKLLIHYTSSLQSGVPSRFSGSGSGTDFTLTISSLQPEDFATYYCLQYDNLYTFGQGTKLEIKGGGGSGGGGSGGGGSGGGGSEVQLVESGGGLVQPGGSLRLSCAASGFTFSDYGMAWVRQAPGKGLEWVSFITSLAYIIYYADSVKGRFTISRDNAKNSLYLQMNSLRAEDTAVYYCARNYGSSPYYFDYWGQGTLVTVSS
notes: scFv (VL-VH); also called Humanized 5F9 anti-PD-L1 scFv; not shown: wildtype IgG1 Fc region
B3: PDL01034 (5F9HL x human IgG1 WT Fc) (Fc fusion)
chain: EVKLVESGGGLVQPGGSRKLSCAASGFTFSDYGMAWVRQAPGKGPEWVAFITSLAYIIFYSDTVTGRFTISRENAKNTLYLEMSSLRSEDTAVYYCARNYGSSPYYFDYWGQGTTLTVSSGGGGSGGGGSGGGGSGGGGSDIQMTQSPSSLSTSLGGKVTITCKASQDINKFISWYQHKPGKGPRLLIHYTSSLQPGIPSRFSGSGSGRDYSFSISNLEPEDIATYYCLQYDNLYTFGGGTKLEIK
notes: Murine anti-PD-L1 scFv (VH-VL) on human IgG1 wild-type Fc; also called PDL01034 (Parent); 5F9 clone PDL01034; not shown: human IgG1 WT Fc

Legend:
[1] = molecular target: T1, human CD40 full-length (human, UniProt P25942 21-277); assay: flow cytometry, CHOK1SV/human CD40 cells
T1 construct: Also used for CD40 of Daudi cells, of CD40-expressing HEK293 cells and of the BPS CD40/NFkB HEK293 reporter cells where the row says so; also called CD4001012; CHOK1SV/CD40

[2] = molecular target: T2, Human PD-L1 full-length (human, UniProt Q9NZQ7 19-290); assay: flow cytometry, CHOK1SV/human PD-L1 cells
T2 construct: also called PDL01021; CHOK1SV/huPDL1

[3] = molecular target: T3, huPD-L1 ECD AFH (human); assay: SPR, binder captured on anti-human IgG, PD-L1 ECD injected, 1:1 fit
T3 construct: also called PDL01001; recombinant human PD-L1 ectodomain (ECD)

[4] = molecular target: T2, Human PD-L1 full-length; assay: MSD cell binding, CHOK1SV/human PD-L1 cells; x axis without printed unit
[5] = molecular target: T4, Cyno PD-L1 full-length (cynomolgus, UniProt Q9NZQ7 19-290 (human entry)); assay: MSD cell binding, CHOK1SV/cynomolgus PD-L1 cells; x axis without printed unit
T4 construct: also called PDL01022; CHOK1SV/cynoPDL1
T4 sequence (Q9NZQ7 other isoform, or with tags, fused parts or gaps): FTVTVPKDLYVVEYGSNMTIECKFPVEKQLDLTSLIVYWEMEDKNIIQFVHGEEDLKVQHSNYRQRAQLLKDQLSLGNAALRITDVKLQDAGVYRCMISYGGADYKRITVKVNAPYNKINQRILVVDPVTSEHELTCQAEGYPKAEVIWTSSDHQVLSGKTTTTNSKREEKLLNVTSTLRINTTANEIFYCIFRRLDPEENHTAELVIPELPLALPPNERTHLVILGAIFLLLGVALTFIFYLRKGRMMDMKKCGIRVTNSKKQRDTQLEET

T3 sequence (chain, as listed by the source limits assumed): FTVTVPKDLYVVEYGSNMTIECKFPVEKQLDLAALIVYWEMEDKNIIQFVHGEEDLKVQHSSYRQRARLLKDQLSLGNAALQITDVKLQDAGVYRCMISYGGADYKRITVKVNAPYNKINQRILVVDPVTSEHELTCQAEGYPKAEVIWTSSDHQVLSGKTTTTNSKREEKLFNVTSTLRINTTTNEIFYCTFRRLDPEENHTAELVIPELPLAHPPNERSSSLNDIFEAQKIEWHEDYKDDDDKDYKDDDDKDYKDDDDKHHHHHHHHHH
T2 sequence (Q9NZQ7 19-290): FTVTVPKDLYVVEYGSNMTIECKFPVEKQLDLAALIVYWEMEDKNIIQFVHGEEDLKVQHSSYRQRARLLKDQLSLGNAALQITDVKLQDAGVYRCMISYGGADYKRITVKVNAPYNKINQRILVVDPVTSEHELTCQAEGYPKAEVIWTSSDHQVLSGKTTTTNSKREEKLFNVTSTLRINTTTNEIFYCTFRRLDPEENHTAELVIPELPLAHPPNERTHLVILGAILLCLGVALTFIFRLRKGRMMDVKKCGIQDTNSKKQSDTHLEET

| binding result [1] | binding result [2] | Kd [3] | koff [3] | kon [3] | binding result [4] | binding result [5] | Binder |
| --- | --- | --- | --- | --- | --- | --- | --- |
| binds | binds |  |  |  |  |  | B1 |
|  |  | 1.1 nM | 0.0012 s⁻¹ | 1.1e+06 M⁻¹ s⁻¹ |  |  | B2 |
|  |  | 0.2 nM | 0.00024 s⁻¹ | 1.4e+06 M⁻¹ s⁻¹ | binds | binds | B3 |

— patent publication US20260217833A1 (APTEVO RESEARCH AND DEVELOPMENT, published 2026)
